Laboratory results taken from patent publication US20210062165A1.

Experiments:
[1] = molecular target: FUS^N-FusionRed-Cry2olig-VioE; test: cell-based or functional assay
FUS^N-Citrine-PixE-VioE = test: cell-based or functional assay

Sequence of FUS^N-FusionRed-Cry2olig-VioE (Q96524 other isoform, or with tags, fused parts or gaps): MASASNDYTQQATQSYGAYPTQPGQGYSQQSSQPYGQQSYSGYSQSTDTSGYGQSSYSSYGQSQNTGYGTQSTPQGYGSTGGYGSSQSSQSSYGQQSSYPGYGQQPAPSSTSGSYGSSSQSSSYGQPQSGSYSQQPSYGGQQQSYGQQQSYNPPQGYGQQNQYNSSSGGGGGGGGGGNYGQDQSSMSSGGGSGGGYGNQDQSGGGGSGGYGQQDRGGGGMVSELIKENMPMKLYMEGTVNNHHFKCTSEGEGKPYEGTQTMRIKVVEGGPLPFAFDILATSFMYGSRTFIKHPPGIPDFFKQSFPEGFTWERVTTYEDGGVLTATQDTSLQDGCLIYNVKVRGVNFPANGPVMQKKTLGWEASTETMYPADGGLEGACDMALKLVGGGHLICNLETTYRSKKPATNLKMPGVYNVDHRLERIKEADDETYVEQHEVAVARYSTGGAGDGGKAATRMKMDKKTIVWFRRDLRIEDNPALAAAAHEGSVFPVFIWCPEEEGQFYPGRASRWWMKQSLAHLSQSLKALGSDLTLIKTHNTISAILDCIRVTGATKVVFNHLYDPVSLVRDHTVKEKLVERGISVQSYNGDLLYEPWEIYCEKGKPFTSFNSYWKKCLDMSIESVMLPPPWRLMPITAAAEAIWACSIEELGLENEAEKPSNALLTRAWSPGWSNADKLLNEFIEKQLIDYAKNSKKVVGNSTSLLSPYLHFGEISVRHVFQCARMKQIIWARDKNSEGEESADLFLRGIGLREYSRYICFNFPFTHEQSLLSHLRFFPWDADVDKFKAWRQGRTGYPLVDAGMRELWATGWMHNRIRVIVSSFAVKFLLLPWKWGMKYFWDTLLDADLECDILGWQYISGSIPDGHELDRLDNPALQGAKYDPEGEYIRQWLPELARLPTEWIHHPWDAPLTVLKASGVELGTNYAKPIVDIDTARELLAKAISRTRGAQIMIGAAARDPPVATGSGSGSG
Sequence of VioC-FUS^N-Citrine-Cry2olig (Q9S3U9 1-429, tags or fused parts left off): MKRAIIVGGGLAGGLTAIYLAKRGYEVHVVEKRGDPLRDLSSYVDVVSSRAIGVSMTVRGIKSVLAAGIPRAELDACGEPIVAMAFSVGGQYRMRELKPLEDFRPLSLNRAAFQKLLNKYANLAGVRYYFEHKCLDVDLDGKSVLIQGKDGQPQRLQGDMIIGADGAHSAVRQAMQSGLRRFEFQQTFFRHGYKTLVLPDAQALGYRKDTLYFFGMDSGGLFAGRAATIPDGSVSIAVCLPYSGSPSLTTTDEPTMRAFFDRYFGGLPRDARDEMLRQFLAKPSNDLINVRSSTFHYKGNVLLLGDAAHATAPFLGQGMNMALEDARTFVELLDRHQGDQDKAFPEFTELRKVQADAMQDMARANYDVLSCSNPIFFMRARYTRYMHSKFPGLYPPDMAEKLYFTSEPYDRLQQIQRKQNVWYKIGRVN
Sequence of FUS^N-Citrine-Cry2olig-VioC (P35637 1-214, tags or fused parts left off): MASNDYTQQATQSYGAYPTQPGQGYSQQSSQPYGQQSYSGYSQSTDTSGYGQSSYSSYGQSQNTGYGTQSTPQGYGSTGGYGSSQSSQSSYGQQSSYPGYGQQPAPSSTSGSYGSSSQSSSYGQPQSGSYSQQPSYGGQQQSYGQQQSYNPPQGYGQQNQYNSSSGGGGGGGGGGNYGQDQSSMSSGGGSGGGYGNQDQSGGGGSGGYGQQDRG

FUS^N-Citrine-Cry2olig-VioC (from UniProt P35637 1-214; Q96524 1-498; Q9S3U9 1-429)
deoxyviolacein production under continuous blue light relative to dark (HPLC, strain YNS34) [1]: 2 fold

FUS^N-FusionRed-PixD-VioC (from UniProt Q9S3U9 1-429)
change in deoxyviolacein production from light to dark (HPLC, strain YEZ257, [Zeo]max 1,200 mg/L) (FUS^N-Citrine-PixE-VioE): 6.1 fold | change in deoxyviolacein-to-PDV ratio from light to dark (HPLC, strain YEZ257, [Zeo]max 1,200 mg/L) (FUS^N-Citrine-PixE-VioE): 18.4 fold

VioC-FUS^N-Citrine-Cry2olig (from UniProt Q9S3U9 1-429; P35637 1-214; Q96524 1-498)
deoxyviolacein production under continuous blue light relative to dark (HPLC, strain YNS36) [1]: 2 fold
